Assay results from paper PMC9021268.

Assays:
[1] = biological target: Dynamic microtubules, coverslip-anchored (grown from GMPCPP-stabilized seeds with unpolymerized tubulin) (bovine) (UniProt Q6B856); test: optical trap force clamp (detachment of kinetochore-decorated beads from microtubule tips); high density of kinetochores on anti-His beads (Dsn1:bead ratio 3,300); coverslip-anchored dynamic microtubules; ~1 pN; 3 nM Dam1c and ATP in the buffer; 5 μM active AurB* flowed in
[2] = biological target: Dynamic microtubules, coverslip-anchored (grown from GMPCPP-stabilized seeds with unpolymerized tubulin) (bovine) (UniProt Q6B856); test: optical trap force clamp (detachment of kinetochore-decorated beads from microtubule tips); low density of kinetochores on anti-His beads (Dsn1:bead ratio 200); coverslip-anchored dynamic microtubules; 1.5 pN; 3 nM Dam1c and ATP in the buffer; 0.5 μM active AurB* flowed in
[3] = biological target: Dynamic microtubules, coverslip-anchored (grown from GMPCPP-stabilized seeds with unpolymerized tubulin) (bovine) (UniProt Q6B856); test: optical trap force clamp (detachment of kinetochore-decorated beads from microtubule tips); low density of kinetochores on anti-His beads (Dsn1:bead ratio 200); coverslip-anchored dynamic microtubules; 5 pN; 3 nM Dam1c and ATP in the buffer; 0.5 μM AurB*-KD flowed in
[4] = biological target: Dynamic microtubules, coverslip-anchored (grown from GMPCPP-stabilized seeds with unpolymerized tubulin) (bovine) (UniProt Q6B856); test: optical trap force clamp (detachment of kinetochore-decorated beads from microtubule tips); high density of kinetochores on anti-His beads (Dsn1:bead ratio 3,300); coverslip-anchored dynamic microtubules; ~1 pN; 3 nM Dam1c and ATP in the buffer; 5 μM AurB*-KD flowed in
[5] = biological target: Dynamic microtubules, coverslip-anchored (grown from GMPCPP-stabilized seeds with unpolymerized tubulin) (bovine) (UniProt Q6B856); test: optical trap force clamp (detachment of kinetochore-decorated beads from microtubule tips); low density of kinetochores on anti-His beads (Dsn1:bead ratio 200); coverslip-anchored dynamic microtubules; 5 pN; 3 nM Dam1c and ATP in the buffer; 0.5 μM active AurB* flowed in
[6] = biological target: Dynamic microtubules, coverslip-anchored (grown from GMPCPP-stabilized seeds with unpolymerized tubulin) (bovine) (UniProt Q6B856); test: optical trap force clamp (detachment of kinetochore-decorated beads from microtubule tips); low density of kinetochores on anti-His beads (Dsn1:bead ratio 200); coverslip-anchored dynamic microtubules; 1.5 pN; 3 nM Dam1c and ATP in the buffer; 0.5 μM AurB*-KD flowed in
[7] = biological target: Dynamic microtubules, coverslip-anchored (grown from GMPCPP-stabilized seeds with unpolymerized tubulin) (bovine) (UniProt Q6B856); test: optical trap force clamp (detachment of kinetochore-decorated beads from microtubule tips); high density of kinetochores on anti-His beads (Dsn1:bead ratio 3,300); coverslip-anchored dynamic microtubules; ~1 pN; 3 nM Dam1c and ATP in the buffer; 0.5 μM active AurB* flowed in
tubulin (microtubules) = test: optical trap tip-attachment detachment rate
[8] = reference: 5 µM AurB*-KD flowed in

Chain of UniProt Q6B856 (Q6B856 whole entry, looked up): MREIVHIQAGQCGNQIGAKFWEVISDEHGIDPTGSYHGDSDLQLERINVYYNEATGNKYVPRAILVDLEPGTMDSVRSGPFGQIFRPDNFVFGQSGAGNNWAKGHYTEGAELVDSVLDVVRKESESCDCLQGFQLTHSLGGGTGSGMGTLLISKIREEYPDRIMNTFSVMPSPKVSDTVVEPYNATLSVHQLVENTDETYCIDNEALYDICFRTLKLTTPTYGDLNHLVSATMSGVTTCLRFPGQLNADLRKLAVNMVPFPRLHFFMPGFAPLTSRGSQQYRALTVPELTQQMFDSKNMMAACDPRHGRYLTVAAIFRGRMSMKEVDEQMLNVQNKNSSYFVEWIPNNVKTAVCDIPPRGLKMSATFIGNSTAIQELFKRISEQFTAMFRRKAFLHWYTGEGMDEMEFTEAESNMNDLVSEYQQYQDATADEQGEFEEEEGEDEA

**Q.** Which detachment rate [1] does the source give for “Mps1-1 kinetochores (native kinetochores purified from budding yeast strain SBY8726) (from UniProt P40568 1-576; P40460 1-691; P53148 1-917) (complex)” here?
**A.** Its detachment rate is 7.2 h⁻¹.

**Q.** What about the detachment rate [2] of the same substance?
**A.** Its detachment rate is 28.9 h⁻¹.

**Q.** And the detachment rate [3]?
**A.** The detachment rate was 7 h⁻¹.

**Q.** And the detachment rate [4]?
**A.** The detachment rate was 2.3 h⁻¹.

**Q.** And the detachment rate [5]?
**A.** Its detachment rate is 7 h⁻¹.

**Q.** What about the detachment rate [6] of the same substance?
**A.** Its detachment rate is 10.4 h⁻¹.

**Q.** What about the detachment rate [7] of the same substance?
**A.** Its detachment rate is 4.6 h⁻¹.

**Q.** For “Ndc80 (from UniProt P40460) 0.5 µM AurB* flowed in”, which “other: detachment rate” value (tubulin (microtubules); reference: 0.5 µM AurB*-KD flowed in) is on record?
**A.** The value was “weaker; reference 10.4 ± 3.3”.

**Q.** And the “other: detachment rate” value (tubulin (microtubules); [8])?
**A.** The value was “weaker; reference 2.3 ± 0.9”.

**Q.** Which “other: detachment rate” value (tubulin (microtubules); [8]) does the source give for “Ndc80 (from UniProt P40460) 5 µM AurB* flowed in” here?
**A.** The value was “weaker; reference 2.3 ± 0.9”.
